Measured values published in the RNAGym collection of RNA variant scans (doi:10.7554/elife.90254).

B1: LINE1-mini (parent)
chain: GGCAGAGCUCAACACAGCGUGGCAAAGUGGCUGUGGCUAGACUGCC

Variants of: B1
Experiment: self-cleavage, relative activity (ratio to wild type); higher = more cleavage; in vitro, sequencing; the parent is a self-cleaving ribozyme

**Q.** For GGGAGAGCUCUACACAGCGUGGCAAAGUGGCUGUGGCUAGACUGCC [C3G A11U], which self-cleavage is on record?
**A.** 0.03

**Q.** With GGCAGAGCUCAACACAGCGUGGCAAAGUGGCUGUGGCAAGACUGCA [U38A C46A] as the variant, how does the self-cleavage read?
**A.** 0.35

**Q.** For GGCAGAACUCAACACAGCGUGGCAAAGUGGCUGUGGCUAGACUUCC [G7A G44U], which self-cleavage is on record?
**A.** 0.18

**Q.** With GGCAGAGCGCAACACAGCGUGGCAAAGUGGCUGUGGCUAAACUGCC [U9G G40A] as the variant, how does the self-cleavage read?
**A.** 0.08

**Q.** For GGCAACGCUCAACACAGCGUGGCAAAGUGGCUGUGGCUAGACUGCC [G5A A6C], which self-cleavage is on record?
**A.** 0.2

**Q.** Which self-cleavage does the source give for GGCAGAGCUCAACACAGGGUGGCAAAGUGGCUGUGGCUAGACUGCA [C18G C46A] here?
**A.** 0.43

**Q.** With GGAAGAGCUCAACACAGCGUGGCAAAGUGACUGUGGCUAGACUGCC [C3A G30A] as the variant, how does the self-cleavage read?
**A.** 1.1

**Q.** With GGCAGAGCUCAUCUCAGCGUGGCAAAGUGGCUGUGGCUAGACUGCC [A12U A14U] as the variant, how does the self-cleavage read?
**A.** 0.18

**Q.** Which self-cleavage does the source give for GGCAGAGCUCAACACGGCGUGGCAAAGUGGCUGUGGCUAGACUACC [A16G G44A] here?
**A.** 0.25

**Q.** Which self-cleavage does the source give for GGCAGAGCUCAACACAGCGUGGCAAAGUGGCUGUGACUUGACUGCC [G36A A39U] here?
**A.** 0.22

**Q.** With GACAGAGCUCAAUACAGCGUGGCAAAGUGGCUGUGGCUAGACUGCC [G2A C13U] as the variant, how does the self-cleavage read?
**A.** 0.32

**Q.** For GGCAGAGCUCAACACCGCGUGGCAAAGUGGCUGUGGCUAGACUGGC [A16C C45G], which self-cleavage is on record?
**A.** 0.06

**Q.** With GGCAGAGCUCAACGGAGCGUGGCAAAGUGGCUGUGGCUAGACUGCC [A14G C15G] as the variant, how does the self-cleavage read?
**A.** 0.08

**Q.** Which self-cleavage does the source give for GCCAGAGCUCUACACAGCGUGGCAAAGUGGCUGUGGCUAGACUGCC [G2C A11U] here?
**A.** 0.03

**Q.** Which self-cleavage does the source give for GGCAGAGCUCAACACUGCGUGUCAAAGUGGCUGUGGCUAGACUGCC [A16U G22U] here?
**A.** 0.42

**Q.** Which self-cleavage does the source give for GGCAGAGCUCAACACAGCGUGGCAAAGCGGUUGUGGCUAGACUGCC [U28C C31U] here?
**A.** 0.45

**Q.** Which self-cleavage does the source give for GGCAGAGCUCAAAACAGCGUGGCAAAGUGGCUGUGGCUAGAGUGCC [C13A C42G] here?
**A.** 0.08

**Q.** For GGCAGAGCUCAACACAGCGUGGCAAAGUGGCUGUGGCUAAACUGAC [G40A C45A], which self-cleavage is on record?
**A.** 0.12

**Q.** With AGCAGAGCUCAACACAGCGGGGCAAAGUGGCUGUGGCUAGACUGCC [G1A U20G] as the variant, how does the self-cleavage read?
**A.** 0.58

**Q.** With GGCAGAGCUCAACACAGCGUGGCAAAGUGGGUGUGGCUAGACUGCA [C31G C46A] as the variant, how does the self-cleavage read?
**A.** 0.06

**Q.** Which self-cleavage does the source give for GGCAGUGCUCAACACAGCGUGGCAAGGUGGCUGUGGCUAGACUGCC [A6U A26G] here?
**A.** 0.31

**Q.** Which self-cleavage does the source give for GGCAGAGCUCAACACAGCUUCGCAAAGUGGCUGUGGCUAGACUGCC [G19U G21C] here?
**A.** 0.81

**Q.** For GGCAGAGCUCAACACAGCGUGGCAAAGUGGCUCGGGCUAGACUGCC [G33C U34G], which self-cleavage is on record?
**A.** 0.07

**Q.** With GGCACAGCUCAACACAGCGUGGCAAAGUGGGUGUGGCUAGACUGCC [G5C C31G] as the variant, how does the self-cleavage read?
**A.** 0.06

**Q.** For GGCAGAGCUCCACACAGCGUGGCAAAGUGGCGGUGGCUAGACUGCC [A11C U32G], which self-cleavage is on record?
**A.** 0.03

**Q.** With GGCAGAGCACAACACAGCGCGGCAAAGUGGCUGUGGCUAGACUGCC [U9A U20C] as the variant, how does the self-cleavage read?
**A.** 0.12

**Q.** For CGCAGAGCUCAACACAACGUGGCAAAGUGGCUGUGGCUAGACUGCC [G1C G17A], which self-cleavage is on record?
**A.** 0.02

**Q.** Which self-cleavage does the source give for GGCAGAGCUCAACACAGCGUGGGAAGGUGGCUGUGGCUAGACUGCC [C23G A26G] here?
**A.** 0.76

**Q.** With GGCAGAGCUCAACACAGCGUGGCAAAGUGGCUGUGGAUAAACUGCC [C37A G40A] as the variant, how does the self-cleavage read?
**A.** 0.19

**Q.** Which self-cleavage does the source give for GGCAGAGAUCAACAUAGCGUGGCAAAGUGGCUGUGGCUAGACUGCC [C8A C15U] here?
**A.** 0.23

**Q.** For GGCAGAGCUCAACACAGCGUGGCAAAAUGGGUGUGGCUAGACUGCC [G27A C31G], which self-cleavage is on record?
**A.** 0.2

**Q.** For GGCAGAGGUCAAAACAGCGUGGCAAAGUGGCUGUGGCUAGACUGCC [C8G C13A], which self-cleavage is on record?
**A.** 0.11

**Q.** With UGCAGAGCACAACACAGCGUGGCAAAGUGGCUGUGGCUAGACUGCC [G1U U9A] as the variant, how does the self-cleavage read?
**A.** 0.03

**Q.** Which self-cleavage does the source give for GGCAGAGCUCAACACAGCGUGCCAAAAUGGCUGUGGCUAGACUGCC [G22C G27A] here?
**A.** 0.75

**Q.** For GGCAGAGCCCAACACAUCGUGGCAAAGUGGCUGUGGCUAGACUGCC [U9C G17U], which self-cleavage is on record?
**A.** 0.04

**Q.** Which self-cleavage does the source give for GGCAGAGCUCAACACAGCGUGGCAAAGUGGCAGUGGCUAGACUGCC [U32A] here?
**A.** 0.1

**Q.** With GGCAGAGAUCAACACAGCGUGGCAAAGUGGCUGGGGCUAGACUGCC [C8A U34G] as the variant, how does the self-cleavage read?
**A.** 0.34

**Q.** With GGCAUAGCUCAACACAGCGUGGCCAAGUGGCUGUGGCUAGACUGCC [G5U A24C] as the variant, how does the self-cleavage read?
**A.** 0.08

**Q.** With GGCAGAGCUCAACACAACGUGGCAAAGUGGCUGUGGCUAGGCUGCC [G17A A41G] as the variant, how does the self-cleavage read?
**A.** 0.07

**Q.** With GACAGAGCUCGACACAGCGUGGCAAAGUGGCUGUGGCUAGACUGCC [G2A A11G] as the variant, how does the self-cleavage read?
**A.** 0.08

**Q.** With GGCAUAGCUCAACACAGCGUGGCAAAGUGGCUGUGGCUAGAGUGCC [G5U C42G] as the variant, how does the self-cleavage read?
**A.** 0.04

**Q.** Which self-cleavage does the source give for GGGAGAGCUCAACACAGCGUGGCAAAGCGGCUGUGGCUAGACUGCC [C3G U28C] here?
**A.** 0.16

**Q.** Which self-cleavage does the source give for GGCAGAGCGCAACACAGCGUGGCAAAGUGGCUGUGCCUAGACUGCC [U9G G36C] here?
**A.** 0.04

**Q.** For GGCAGAGCUCAACACAGCGUGGCAAAGUGGCUGUGGCGAGACUGGC [U38G C45G], which self-cleavage is on record?
**A.** 0.05

**Q.** Which self-cleavage does the source give for GGCAGAGCUCAACACAGCGUGGCAAAGUGACUGUGGCUAGAUUGCC [G30A C42U] here?
**A.** 0.6

**Q.** Which self-cleavage does the source give for GGCAGAGCUCAACACAGCGUGGCAAAGUGGCUGUGGUUUGACUGCC [C37U A39U] here?
**A.** 0.04

**Q.** For GGCAGAGCUCAACACAGCGUGGCAAAGUGCCUGUGGCUAGAAUGCC [G30C C42A], which self-cleavage is on record?
**A.** 0.12

**Q.** Which self-cleavage does the source give for CGCAGAGCUCAACAUAGCGUGGCAAAGUGGCUGUGGCUAGACUGCC [G1C C15U] here?
**A.** 0.07

**Q.** For GGCAGAGCUCACCACAGCGUGGCAAUGUGGCUGUGGCUAGACUGCC [A12C A26U], which self-cleavage is on record?
**A.** 0.03

**Q.** Which self-cleavage does the source give for GGCAGAGCUCAACACAGCGUGGCAAAGUGGUUGUGGCUAGACUGCC [C31U] here?
**A.** 0.26

**Q.** With GGAAGAGCUCAACACAGCGUGGCAAAGUAGCUGUGGCUAGACUGCC [C3A G29A] as the variant, how does the self-cleavage read?
**A.** 0.51

**Q.** For GGCAGAGCUCAACACAGCGCGUCAAAGUGGCUGUGGCUAGACUGCC [U20C G22U], which self-cleavage is on record?
**A.** 0.4

**Q.** For GGCAGAGGUCAACACAGCGUGGGAAAGUGGCUGUGGCUAGACUGCC [C8G C23G], which self-cleavage is on record?
**A.** 0.08

**Q.** With GGCAGAGCUCAACACGGCGUGGCAAUGUGGCUGUGGCUAGACUGCC [A16G A26U] as the variant, how does the self-cleavage read?
**A.** 0.52

**Q.** Which self-cleavage does the source give for GGCCGAGCUCAACACAGCUUGGCAAAGUGGCUGUGGCUAGACUGCC [A4C G19U] here?
**A.** 0.06

**Q.** For GGCAGAGCUCAACACACCGAGGCAAAGUGGCUGUGGCUAGACUGCC [G17C U20A], which self-cleavage is on record?
**A.** 0.55
